The values below come from paper PMC11080044, “Contribution of a C-Terminal Extension to the Substrate Affinity and Oligomeric Stability of Aldehyde Dehydrogenase from Thermus thermophilus HB27” (Biochemistry, 2024).

The target in series [1] is Q72KD3. The series is described as follows: SEC; SE-HPLC as in a1, after 5 min incubation at 65 °C and centrifugation at 10000 x g. (In general: SEC sorts molecules by how far they enter the pores of the column.)
Series [2] concerns the molecule itself. The series is described as follows: SEC; SE-HPLC (AdvanceBio SEC 300 Å), untreated protein injected directly after thawing, 0.5 mg/mL, 10 mM potassium phosphate buffer pH 8.0, room temperature; oligomeric states from a calibration plot, percent of peak area, triplicate.
Series [3] concerns the target Q72KD3. As to the kind of experiment: SEC; SE-HPLC as in a1, after 20 min incubation at 65 °C and centrifugation at 10000 x g.
The target of series [4] is Q72KD3. As to the kind of experiment: SEC; SE-HPLC as in a1, after 10 min incubation at 65 °C and centrifugation at 10000 x g.
The target of series [5] is Q72KD3. As to the kind of experiment: SEC; SE-HPLC as in a1, after 15 min incubation at 65 °C and centrifugation at 10000 x g.
For series [6], the target named is Q72KD3. The series is described as follows: SEC; SE-HPLC (AdvanceBio SEC 300 Å), untreated protein injected directly after thawing, 0.5 mg/mL, 10 mM potassium phosphate buffer pH 8.0, room temperature; oligomeric states from a calibration plot, percent of peak area, triplicate.
Series [7] concerns the molecule itself. As to the kind of experiment: SEC; SE-HPLC (AdvanceBio SEC 300 Å) of ALDHTt-508 purified after a 15 min heat shock of the lysate at 65 °C; 50 µL of 0.5 mg/mL, percent of total peak area.

B1: Aldehyde dehydrogenase from Thermus thermophilus HB27, native (ALDHTt-native) (enzyme, UniProt Q72KD3 1-530, looked up)
chain: MRKAAGKYGNTLEFGHLVGGEEVLEGPLLERRNPSDREDVVARFPEADKDLVRKAALKAREAFAEWSRTPAPIRGQVLFNLVKILEREKPTLTRLMVREVGKTPKEAAGDVQEAIDTALFFASEGRRLYGQTVPSEMRDKELFTFRRPLGVVGIITAGNFPIAVPSWKLIPAVLTGNTVVWKPSEDAPTLSFVFAKLFEEAGLPPGVLNVVFGGGKGSTGQWMVELMDEGLFQKFAFTGSTQVGRWIGEVAGRNLIRPTLELGGKNPLVVMRDADLDLAVEGAWWSAFATGGQRCTSAGNILVDAPIYEEFKRRFLERVEATLVGNPLLHPEVTYGPFINERFFARWQEHYRVGEAEGARLLFGRGRITRENPYPRFLGDPEAGLYGWPTVWEVRPGTRLFTEEVFGPTINLVKVDGIEEAIAVANSTPYGLSSAIYTNHRHWAYLFKVGIRAGMTSINNATVGAEAHLPFGGVKASGNGGRESGIWVLEEYTYWHAVNEEYSGRLQLAQMDTGYVSPKAPTPWGEVLGL
notes: Aldehyde dehydrogenase ALDHTt of Thermus thermophilus strain HB27, UniProtKB Q72KD3, 530 amino acids, with its 30-residue C-terminal tail; pET22b(+) construct
As to B1, the % dimer (SE-HPLC) with Q72KD3 [1], with Q72KD3 [3], with Q72KD3 [4], with Q72KD3 [5] and in the series with Q72KD3 [6] was 0% throughout. The % monomer (SE-HPLC) with Q72KD3 [1], in the series with Q72KD3 [3], with Q72KD3 [4], with Q72KD3 [5] and in the series with Q72KD3 [6] was 0% throughout. The % tetramer (SE-HPLC) in the series with Q72KD3 [1] was found to be 97.7%; with Q72KD3 [3], 93.2%; with Q72KD3 [4], 94.9%; with Q72KD3 [5] it was 93.7%; in the series with Q72KD3 [6], 98.8%. Also, in series [2], the stoichiometry N (as a rule, the number of molecules, sites or subunits per partner or assembly) was 4.

B2: ALDHTt-508, aldehyde dehydrogenase from Thermus thermophilus HB27 with a 22-amino acid truncation of the C-terminus (enzyme, UniProt Q72KD3 1-508, looked up)
chain: MRKAAGKYGNTLEFGHLVGGEEVLEGPLLERRNPSDREDVVARFPEADKDLVRKAALKAREAFAEWSRTPAPIRGQVLFNLVKILEREKPTLTRLMVREVGKTPKEAAGDVQEAIDTALFFASEGRRLYGQTVPSEMRDKELFTFRRPLGVVGIITAGNFPIAVPSWKLIPAVLTGNTVVWKPSEDAPTLSFVFAKLFEEAGLPPGVLNVVFGGGKGSTGQWMVELMDEGLFQKFAFTGSTQVGRWIGEVAGRNLIRPTLELGGKNPLVVMRDADLDLAVEGAWWSAFATGGQRCTSAGNILVDAPIYEEFKRRFLERVEATLVGNPLLHPEVTYGPFINERFFARWQEHYRVGEAEGARLLFGRGRITRENPYPRFLGDPEAGLYGWPTVWEVRPGTRLFTEEVFGPTINLVKVDGIEEAIAVANSTPYGLSSAIYTNHRHWAYLFKVGIRAGMTSINNATVGAEAHLPFGGVKASGNGGRESGIWVLEEYTYWHAVNEEYSGRLQL
notes: Aldehyde dehydrogenase ALDHTt of Thermus thermophilus strain HB27, UniProtKB Q72KD3, without the last 22 amino acids of the 530; also called truncated mutant
Turning to B2, the % dimer (SE-HPLC) with Q72KD3 [1] was 0%; with Q72KD3 [3], 0%; in the series with Q72KD3 [4] it was 0%; in the series with Q72KD3 [5] it was 0%; with Q72KD3 [6] it was 1.71%. In addition, the % monomer (SE-HPLC) with Q72KD3 [1] worked out at 0.87%; with Q72KD3 [3], 0.71%; in the series with Q72KD3 [4] it was 0.79%; with Q72KD3 [5] it was 0.55%; with Q72KD3 [6], 2.5%. Moreover, the % tetramer (SE-HPLC) with Q72KD3 [1] was determined as 95.4%; with Q72KD3 [3], 91.4%; with Q72KD3 [4], 93.1%; in the series with Q72KD3 [5] it was 95.8%; in the series with Q72KD3 [6] it was 90%. Also, in series [2], the “stoichiometry N” value came out at 4. Further, in series [7], the “% of fully folded protein in the tetrameric peak” value came out at 6.4 ± 1.5%.
